Reference: US20230057012A1, “TGFB INHIBITORS AND USE THEREOF” (Scholar Rock, Inc., priority 2020, published 2023)
“Also recorded” adds a separate entry of the source.

Legend:
[1] = molecular target: T1, hGARP-proTGFβ1 (Homo sapiens, UniProt P01137); experiment: Octet binding kinetics (BLI); conditions: Fab in solution, immobilized biotinylated antigen
T1 construct: biotin (the antigen complex is biotinylated); made in house
Experimental: (§1) The table below exemplifies binding kinetics of the listed antibodies (e.g., Fabs) obtained by OCTET®-based binding assays. The experiments were conducted with immobilized, biotinylated antigen and Fab fragments (e.g., test antibodies) in solution.
(§2) In some embodiments, the binding affinity of an antibody, or antigen-binding portion thereof, to an antigen (e.g., protein complex), such as presenting molecule-proTGFβ1 complexes, is determined using an Octet assay. In some embodiments, an Octet assay is an assay that determines one or more a kinetic parameters indicative of binding between an antibody and antigen. In some embodiments, an OCTET® system (FORTEBIO®, Menlo Park, Calif.) is used to determine the binding affinity of an antibody, or antigen-binding portion thereof, to presenting molecule-proTGFβ1 complexes. For example, binding affinities of antibodies may be determined using the FORTEBIO® Octet QKe dip and read label free assay system utilizing bio-layer interferometry. In some embodiments, antigens are immobilized to biosensors (e.g., streptavidin-coated biosensors) and the […] are presented in solution at high concentration (50 μg/mL) to measure binding interactions. In some embodiments, the binding affinity of an antibody, or antigen-binding portion thereof, to a presenting molecule-proTGFβ1 complex is determined using the protocol outlined in Table 14.
(§3) The protocol used to measure the affinity of the antibodies to the complexes provided herein is summarized in Table 14 below, and a summary list of affinity profiles of exemplary antibodies of the present disclosure is provided in Table 6 herein.

[2] = molecular target: T2, hLTBP1-proTGFβ1 (Homo sapiens, UniProt P01137); experiment: Octet binding kinetics (BLI); conditions: Fab in solution, immobilized biotinylated antigen
T2 construct: biotin (the antigen complex is biotinylated); made in house
T2 sequence (P01137 30-390): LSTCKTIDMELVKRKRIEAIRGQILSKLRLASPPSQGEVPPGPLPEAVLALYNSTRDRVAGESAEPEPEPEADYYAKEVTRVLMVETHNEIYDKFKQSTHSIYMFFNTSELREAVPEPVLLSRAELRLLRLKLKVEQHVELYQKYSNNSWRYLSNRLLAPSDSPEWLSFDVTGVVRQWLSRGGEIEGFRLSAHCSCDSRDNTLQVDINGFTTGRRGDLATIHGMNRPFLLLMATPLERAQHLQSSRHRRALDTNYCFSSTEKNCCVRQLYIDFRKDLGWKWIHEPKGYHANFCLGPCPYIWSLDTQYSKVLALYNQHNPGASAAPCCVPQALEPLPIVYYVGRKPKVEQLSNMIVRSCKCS
T2 sequence (Q14766 347-1721 partner limits assumed): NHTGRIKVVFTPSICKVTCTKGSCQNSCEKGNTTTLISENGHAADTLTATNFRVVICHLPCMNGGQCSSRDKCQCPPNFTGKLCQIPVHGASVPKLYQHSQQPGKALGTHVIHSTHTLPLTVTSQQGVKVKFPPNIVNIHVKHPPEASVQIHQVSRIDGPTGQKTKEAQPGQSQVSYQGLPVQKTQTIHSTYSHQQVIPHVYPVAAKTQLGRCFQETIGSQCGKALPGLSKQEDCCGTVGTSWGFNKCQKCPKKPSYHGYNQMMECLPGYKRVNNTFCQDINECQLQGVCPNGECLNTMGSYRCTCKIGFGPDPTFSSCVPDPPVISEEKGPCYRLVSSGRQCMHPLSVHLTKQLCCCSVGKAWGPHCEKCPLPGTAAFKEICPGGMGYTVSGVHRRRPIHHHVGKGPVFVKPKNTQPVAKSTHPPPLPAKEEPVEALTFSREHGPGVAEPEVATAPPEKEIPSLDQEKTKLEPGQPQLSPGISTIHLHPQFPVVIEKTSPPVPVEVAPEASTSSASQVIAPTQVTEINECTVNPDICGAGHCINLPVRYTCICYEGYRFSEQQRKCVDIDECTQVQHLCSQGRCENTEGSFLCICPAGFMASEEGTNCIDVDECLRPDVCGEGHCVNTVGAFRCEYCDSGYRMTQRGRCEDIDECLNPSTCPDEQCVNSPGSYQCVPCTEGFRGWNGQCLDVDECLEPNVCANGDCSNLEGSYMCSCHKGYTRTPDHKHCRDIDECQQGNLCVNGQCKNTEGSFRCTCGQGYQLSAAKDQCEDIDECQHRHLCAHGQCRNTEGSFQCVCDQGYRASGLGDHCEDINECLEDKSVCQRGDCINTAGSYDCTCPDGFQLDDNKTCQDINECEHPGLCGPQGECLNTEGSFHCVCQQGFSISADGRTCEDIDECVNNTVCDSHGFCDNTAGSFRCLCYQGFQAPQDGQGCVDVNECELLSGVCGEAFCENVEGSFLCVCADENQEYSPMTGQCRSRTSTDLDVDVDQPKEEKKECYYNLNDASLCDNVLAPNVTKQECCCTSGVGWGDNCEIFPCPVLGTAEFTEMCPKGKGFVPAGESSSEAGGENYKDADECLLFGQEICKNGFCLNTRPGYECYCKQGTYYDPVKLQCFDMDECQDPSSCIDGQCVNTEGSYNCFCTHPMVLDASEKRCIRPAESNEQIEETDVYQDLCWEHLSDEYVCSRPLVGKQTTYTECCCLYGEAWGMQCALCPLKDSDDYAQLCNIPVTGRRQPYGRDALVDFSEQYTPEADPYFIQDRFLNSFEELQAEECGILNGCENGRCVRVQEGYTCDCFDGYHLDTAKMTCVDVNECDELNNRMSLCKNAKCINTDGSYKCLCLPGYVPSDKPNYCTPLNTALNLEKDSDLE
Experimental: as §1, §2, §3

[3] = molecular target: T3, hLTBP3-proTGFβ1 (Homo sapiens, UniProt P01137); experiment: Octet binding kinetics (BLI); conditions: Fab in solution, immobilized biotinylated antigen
T3 construct: biotin (the antigen complex is biotinylated); made in house
T3 sequence (P01137 30-390): as the sequence (P01137 30-390) above
T3 sequence (Q9NS15 44-1303 partner): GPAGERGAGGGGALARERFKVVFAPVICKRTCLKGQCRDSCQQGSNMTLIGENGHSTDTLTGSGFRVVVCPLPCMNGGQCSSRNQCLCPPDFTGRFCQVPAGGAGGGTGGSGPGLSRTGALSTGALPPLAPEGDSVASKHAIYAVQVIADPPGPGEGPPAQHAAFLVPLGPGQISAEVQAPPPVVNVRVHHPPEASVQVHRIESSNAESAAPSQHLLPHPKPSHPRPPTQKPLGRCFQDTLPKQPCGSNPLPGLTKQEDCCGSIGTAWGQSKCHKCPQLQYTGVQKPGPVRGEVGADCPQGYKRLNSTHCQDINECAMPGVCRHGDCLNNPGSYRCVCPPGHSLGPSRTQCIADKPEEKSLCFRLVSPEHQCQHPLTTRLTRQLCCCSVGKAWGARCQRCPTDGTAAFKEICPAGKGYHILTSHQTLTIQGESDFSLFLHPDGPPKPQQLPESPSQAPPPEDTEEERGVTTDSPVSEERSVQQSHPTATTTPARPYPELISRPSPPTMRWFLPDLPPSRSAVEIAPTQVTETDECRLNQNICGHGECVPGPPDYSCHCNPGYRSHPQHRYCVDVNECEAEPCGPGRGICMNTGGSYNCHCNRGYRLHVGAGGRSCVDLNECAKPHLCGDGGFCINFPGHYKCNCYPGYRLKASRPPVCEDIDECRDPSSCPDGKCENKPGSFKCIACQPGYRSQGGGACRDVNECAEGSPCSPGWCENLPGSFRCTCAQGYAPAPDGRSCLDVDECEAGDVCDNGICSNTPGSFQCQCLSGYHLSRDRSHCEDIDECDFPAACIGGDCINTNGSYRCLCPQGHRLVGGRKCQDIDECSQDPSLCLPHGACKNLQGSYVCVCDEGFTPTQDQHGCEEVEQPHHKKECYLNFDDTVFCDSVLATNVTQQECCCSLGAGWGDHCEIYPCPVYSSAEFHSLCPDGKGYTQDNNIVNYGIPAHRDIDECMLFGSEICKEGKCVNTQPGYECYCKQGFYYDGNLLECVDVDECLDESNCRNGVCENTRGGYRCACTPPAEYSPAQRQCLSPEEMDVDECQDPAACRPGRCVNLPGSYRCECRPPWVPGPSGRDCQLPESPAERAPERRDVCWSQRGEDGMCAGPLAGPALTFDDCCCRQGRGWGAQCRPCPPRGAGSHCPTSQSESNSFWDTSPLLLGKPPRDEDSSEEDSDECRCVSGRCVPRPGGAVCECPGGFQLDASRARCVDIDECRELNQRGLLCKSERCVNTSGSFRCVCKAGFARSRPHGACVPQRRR
Experimental: as §1, §2, §3

[4] = molecular target: T1, hGARP-proTGFβ1; experiment: Biacore SPR Fab binding kinetics
Experimental: (§4) Among these antibodies, Ab42, Ab46 and Ab50 were selected for further evaluation. Surface plasmon resonance (SPR) was used to measure binding kinetics using a BIACORE® system. Association and dissociation kinetics of Fab fragments of Ab42, Ab46, Ab50 and a reference antibody (shown as “Ref”), to antigen complexes were measured, and resulting equilibrium dissociation constants (KD) are provided below. Experiments were carried out with eight types of LLCs, namely, hLTBP1-proTGFβ1, mLTBP1-proTGFβ1, hLTBP3-proTGFβ1, mLTBP3-proTGFβ1, hGARP-proTGFβ1, mGARP-proTGFβ1, hLRRC33-proTGFβ1 and mLRRC33-proTGFβ1.
(§5) In vitro binding kinetics (on/off rates) were measured in Biacore-based assays and affinities were determined against all four known LLCs using both human and murine counterparts for each. Based on the association rate and dissociation rate, KD was calculated for each. In addition, relative affinities, as compared to the reference antibody as a benchmark, were calculated and expressed as “fold difference” relative to the reference antibody.
(§6) A BIACORE® system was employed to determine the monovalent binding affinity and the kinetic parameters for antigen binding of test antibodies. The binding kinetics were evaluated by surface plasmon resonance using Biacore 8K (GE Healthcare). A Biotin CAP sensor chip was used to capture the biotinylated antigens. Fabs at various concentrations (0 nM, 0.62 nM, 1.25 nM, 2.5 nM, 5 nM and 10 nM) were injected over the captured antigens. Multi-cycle kinetics was employed where each analyte concentration was injected in a separate cycle and the sensor chip surface was regenerated after each cycle. All the assays were carried out in freshly prepared 1× HBS-EP+ buffer (10 mM HEPES, 150 mM NaCl, 3 mM EDTA, 0.05% Tween20, pH 7.4). Data for all the analyte concentrations for each interaction were fit globally to a 1:1 binding model to obtain the kinetic parameters. The Sensorgram for 0 nM analyte concentration was used as reference.
(§7) The binding kinetics of antibody interactions with each of the antigen complexes, human LTBP1-ProTGFβ1, human LTBP3-ProTGFβ1, human GARP-ProTGFβ1, and human LRRC33-ProTGFβ1, were evaluated by surface plasmon resonance. Binding kinetics was evaluated by surface plasmon resonance using a BIACORE® 8K (GE) instrument. Biotinylated antigens were captured on a Biotin CAP chip and the Fab fragments of the antibodies were used as analytes. Sensorgrams for Fab binding at variable concentrations (0.6-10 nM) were globally fit to obtain the kinetic parameters.
(§8) Binding kinetics for the Fabs were evaluated against each of the four human antigens, LTBP1-ProTGFβ1, LTBP3-ProTGFβ1, GARP-ProTGFβ1, and LRRC33-ProTGFβ1. […] These experiments were repeated.

[5] = molecular target: T4, hLRRC33-proTGFβ1 (Homo sapiens, UniProt P01137); experiment: Biacore SPR Fab binding kinetics
T4 construct: biotin (the antigen complex is biotinylated); made in house
T4 sequence (P01137 30-390): as the sequence (P01137 30-390) above
T4 sequence (Q86YC3 with tags, fused parts or gaps partner limits assumed): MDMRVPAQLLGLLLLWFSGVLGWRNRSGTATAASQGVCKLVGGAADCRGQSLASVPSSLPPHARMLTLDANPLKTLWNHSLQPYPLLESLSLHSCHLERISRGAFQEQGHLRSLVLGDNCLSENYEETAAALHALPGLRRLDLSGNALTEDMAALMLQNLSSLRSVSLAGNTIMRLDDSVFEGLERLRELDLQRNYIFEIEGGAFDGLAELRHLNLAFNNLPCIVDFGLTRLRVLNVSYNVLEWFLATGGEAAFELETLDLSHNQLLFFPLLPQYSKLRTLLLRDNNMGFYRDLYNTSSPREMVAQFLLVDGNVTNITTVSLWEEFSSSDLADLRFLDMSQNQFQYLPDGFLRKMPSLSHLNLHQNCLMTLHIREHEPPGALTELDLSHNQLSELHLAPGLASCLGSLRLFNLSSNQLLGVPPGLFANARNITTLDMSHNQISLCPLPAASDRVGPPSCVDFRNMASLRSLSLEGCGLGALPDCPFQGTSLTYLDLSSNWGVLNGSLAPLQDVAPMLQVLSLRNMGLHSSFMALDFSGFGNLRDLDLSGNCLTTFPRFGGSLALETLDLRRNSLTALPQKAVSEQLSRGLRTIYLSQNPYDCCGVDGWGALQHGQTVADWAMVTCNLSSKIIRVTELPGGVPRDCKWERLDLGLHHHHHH
Experimental: as §4, §5, §6, §7, §8

[6] = molecular target: T2, hLTBP1-proTGFβ1; experiment: Biacore SPR Fab binding kinetics
Experimental: as §4, §5, §6, §7, §8

[7] = molecular target: T3, hLTBP3-proTGFβ1; experiment: Biacore SPR Fab binding kinetics
Experimental: as §4, §5, §6, §7, §8

[8] = molecular target: T5, mGARP-proTGFβ1 (Homo sapiens, UniProt P01137); experiment: Biacore SPR Fab binding kinetics; parameters: species or system mouse; conditions: Table 10
T5 construct: biotin (the antigen complex is biotinylated); made in house
Experimental: as §4, §5, §6

[9] = molecular target: T6, mGARP-proTGFβ1; experiment: Biacore SPR Fab binding kinetics; parameters: species or system mouse; conditions: Table 10
T6 construct: biotin (the antigen complex is biotinylated); made in house
Experimental: as §4, §5, §6

[10] = molecular target: T7, mLRRC33-proTGFβ1 (Homo sapiens, UniProt P01137); experiment: Biacore SPR Fab binding kinetics; parameters: species or system mouse; conditions: Table 12
T7 construct: biotin (the antigen complex is biotinylated); made in house
Experimental: as §4, §5, §6

[11] = molecular target: T8, mLRRC33-proTGFβ1; experiment: Biacore SPR Fab binding kinetics; parameters: species or system mouse; conditions: Table 12
T8 construct: biotin (the antigen complex is biotinylated); made in house
Experimental: as §4, §5, §6

[12] = molecular target: T9, mLTBP1-proTGFβ1 (Homo sapiens, UniProt P01137); experiment: Biacore SPR Fab binding kinetics; parameters: species or system mouse; conditions: Table 6
T9 construct: biotin (the antigen complex is biotinylated); made in house
Experimental: as §4, §5, §6

[13] = molecular target: T10, mLTBP1-proTGFβ1; experiment: Biacore SPR Fab binding kinetics; parameters: species or system mouse; conditions: Table 6
T10 construct: biotin (the antigen complex is biotinylated); made in house
Experimental: as §4, §5, §6

[14] = molecular target: T11, mLTBP3-proTGFβ1 (Homo sapiens, UniProt P01137); experiment: Biacore SPR Fab binding kinetics; parameters: species or system mouse; conditions: Table 8
T11 construct: biotin (the antigen complex is biotinylated); made in house
Experimental: as §4, §5, §6

[15] = molecular target: T12, mLTBP3-proTGFβ1; experiment: Biacore SPR Fab binding kinetics; parameters: species or system mouse; conditions: Table 8
T12 construct: biotin (the antigen complex is biotinylated); made in house
Experimental: as §4, §5, §6

[16] = system: LLCs; experiment: ELISA binding to LLCs; conditions: hIgG4; FIGS. 3 and 4
Chain of LLCs (P01137 30-390): as the sequence (P01137 30-390) above

[17] = system: CDHFD mice; experiment: choline-deficient high fat diet (CDHFD) liver fibrosis model; format: in vivo
[18] = system: Wistar-Han rats on a CDHF diet; experiment: CDHFD target engagement study in rats; format: in vivo
Experimental: A similar study was run in 10-12 week old male Wistar-Han rats as follows: rats were fed on a CDHF diet for 12 weeks and then randomized. A first dose of the negative control (“HuNEG” IgG4, 30 mg/kg, n=6) or Ab46 (3, 10, and 30 mg/kg, n=8) was given on Day 1, and a second dose was given on Day 3. Treatment with a TGF-β type 1 receptor (ALK5) kinase inhibitor (ALK5i, 10 mg/kg) was used as a positive control. Tissue collection (left lateral lobe) was performed on Day 5. All rats had detectable serum antibody exposure. […] The study was repeated with a broader dose range: rats were fed on a CDHF diet for 12 weeks and then randomized. A single dose of 0.3 mg/kg, 1 mg/kg, 3 mg/kg, 10 mg/kg, or 30 mg/kg of Ab46 was given on Day 1, and tissue collection was performed after 48 hours.

T1 sequence (P01137 30-390): as above
T1 sequence (Q14392 18-627 partner limits assumed): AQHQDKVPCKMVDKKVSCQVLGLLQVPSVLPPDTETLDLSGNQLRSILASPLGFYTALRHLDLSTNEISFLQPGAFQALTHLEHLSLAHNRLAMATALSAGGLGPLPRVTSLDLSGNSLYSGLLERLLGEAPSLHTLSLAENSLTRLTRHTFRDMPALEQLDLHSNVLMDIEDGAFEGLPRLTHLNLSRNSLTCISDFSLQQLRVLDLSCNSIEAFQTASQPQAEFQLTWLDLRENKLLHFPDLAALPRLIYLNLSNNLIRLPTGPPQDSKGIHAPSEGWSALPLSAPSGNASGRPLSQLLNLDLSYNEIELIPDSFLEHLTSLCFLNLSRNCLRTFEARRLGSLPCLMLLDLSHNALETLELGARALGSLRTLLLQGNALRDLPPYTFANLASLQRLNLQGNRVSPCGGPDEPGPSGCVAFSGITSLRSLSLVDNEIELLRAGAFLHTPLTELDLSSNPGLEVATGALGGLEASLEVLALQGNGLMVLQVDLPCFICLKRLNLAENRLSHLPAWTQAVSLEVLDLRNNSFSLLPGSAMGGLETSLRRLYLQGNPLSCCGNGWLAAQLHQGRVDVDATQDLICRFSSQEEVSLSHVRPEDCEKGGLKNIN

B1: Ab46: activation inhibitor of TGFβ1; H-CDR3 VSGHWDYD, L-CDR2 AASGLES, L-CDR3 QQTYGVPLT (Table 3) (antibody, V domains shown)
VH: EVQLLESGGGLVQPGGSLRLSCAASGFTFADYAMTWVRQAPGKGLEWVSAISGSGAATYFADSVKGRFTISRDNSKNTLYLQMNSLRAEDTAVYYCARVSSGHWDYDYWGQGTLVTVSS
VL: DIQLTQSPSSLSASVGDRVTITCRASQSISSYLNWYQQKPGKAPKLLIYAASGLESGVPSRFSGSGSGTDFTLTISSLQPEDFATYYCQQTYGVPLTFGGGTKVEIK
Question: Which KOFF [1] does the source give for B1 here?
Answer: 0.00029 s⁻¹

Question: And the KON [1]?
Answer: 7.03E+05 M^−1/s^−1

Question: And the KOFF [2]?
Answer: 4.98e-05 s⁻¹

Question: And the KON [2]?
Answer: 7.03E+05 M^−1/s^−1

Question: And the KOFF [3]?
Answer: 0.000438 s⁻¹

Question: What about the KON [3] of the same molecule?
Answer: 6.19E+05 M^−1/s^−1

Question: And the KOFF ([4]; Biacore 8K, Table 22)?
Answer: 0.000359 s⁻¹

Question: What about the kon ([4]; Biacore 8K, Table 22) of the same molecule?
Answer: 1.89e+06 M⁻¹ s⁻¹

Question: What about the KOFF ([4]; Biacore, Table 9) of the same molecule?
Answer: 0.000222 s⁻¹

Question: What about the KON ([4]; Biacore, Table 9) of the same molecule?
Answer: 9.65E+05 M^−1/s^−1

Question: What about the KOFF ([5]; Biacore 8K, Table 22) of the same molecule?
Answer: 0.000162 s⁻¹

Question: And the kon ([5]; Biacore 8K, Table 22)?
Answer: 1.36e+06 M⁻¹ s⁻¹

Question: What about the KOFF ([5]; Biacore, Table 11) of the same molecule?
Answer: 0.000128 s⁻¹

Question: What about the KON ([5]; Biacore, Table 11) of the same molecule?
Answer: 1.52E+06 M^−1/s^−1

Question: And the KOFF ([6]; Biacore 8K, Table 22)?
Answer: 8.52e-05 s⁻¹

Question: And the kon ([6]; Biacore 8K, Table 22)?
Answer: 2.44e+06 M⁻¹ s⁻¹

Question: And the KOFF ([6]; Biacore, Table 5)?
Answer: 8.81e-05 s⁻¹

Question: What about the KON ([6]; Biacore, Table 5) of the same molecule?
Answer: 1.75E+06 M^−1/s^−1

Question: What about the “time bound to the antigen relative to the reference antibody” value ([6]; SPR, FIG. 2, antigen not given) of the same molecule?
Answer: more than 50 times

Question: And the “t1/2 (dissociation)” value ([6]; SPR, FIG. 2, antigen not given, values fit the KOFF of Table 5)?
Answer: over 130 minutes

Question: And the KOFF ([7]; Biacore 8K, Table 22)?
Answer: 0.000195 s⁻¹

Question: And the kon ([7]; Biacore 8K, Table 22)?
Answer: 1.78e+06 M⁻¹ s⁻¹

Question: And the KOFF ([7]; Biacore, Table 7)?
Answer: 0.000128 s⁻¹

Question: What about the KON ([7]; Biacore, Table 7) of the same molecule?
Answer: 1.00E+06 M^−1/s^−1

Question: What about the KON [8] of the same molecule?
Answer: 1.02E+06 M^−1/s^−1

Question: What about the KOFF [9] of the same molecule?
Answer: 0.000278 s⁻¹

Question: And the KON [10]?
Answer: 1.26E+06 M^−1/s^−1

Question: What about the KOFF [11] of the same molecule?
Answer: 0.000112 s⁻¹

Question: And the KON [12]?
Answer: 1.85E+06 M^−1/s^−1

Question: And the KOFF [13]?
Answer: 9.87e-05 s⁻¹

Question: And the KON [14]?
Answer: 1.20E+06 M^−1/s^−1

Question: And the KOFF [15]?
Answer: 0.000115 s⁻¹

Question: And the “binding by ELISA” value [16]?
Answer: Specific and selective binding

Question: And the “% positive pSMAD2 nuclei in liver” value ([17]; 30 mg/kg on Day 1 and Day 3 after ten weeks of CDHFD)?
Answer: Significant reduction in % positive pSMAD2 nuclei

Question: What about the “ratio of phosphorylated versus total SMAD2/3 in the medial lobe (ELISA)” value ([17]; 3, 10 and 30 mg/kg on Day 1 and Day 3 after ten weeks of CDHFD, tissue Day 5, p<0.05) of the same molecule?
Answer: Significant reduction in pSMAD2/3

Question: What about the “reduction in % pSMAD2 nuclei compared to comparable doses of Ab2” value ([17]; data not shown) of the same molecule?
Answer: greater

Question: What about the “% pSMAD2-positive nuclei, left lateral lobe” value ([18]; 3, 10 and 30 mg/kg on Day 1 and Day 3 after 12 weeks of CDHFD, tissue Day 5) of the same molecule?
Answer: suppression of SMAD2 phosphorylation; also recorded: able to suppress phosphorylation of SMAD2

Question: What about the “reduction in percentage of pSMAD2-positive nuclei compared with Ab2” value ([18]; rat, in vivo) of the same molecule?
Answer: greater

Question: What about the “% pSMAD2-positive nuclei” value ([18]; single dose 10 mg/kg and 30 mg/kg on Day 1, tissue after 48 hours) of the same molecule?
Answer: appeared to fully suppress SMAD2 phosphorylation; also recorded: significant reduction of pSMAD2-positive nuclei
